B1: PheDH (Halalkalibacterium halodurans C-125) (protein)
chain: MLTKTPTVTSTLDIFTEMAEHEQVLFCHDPSSGLRAIIAIHDTTLGPALGGCRMYPYQTTEDALRDVLRLSKGMTQKCAAADVDFGGGKAVIIGDPAKDKSANLFRAFGQFVESLNGRFYTGTDMGTTMEDFVHALKETNGIVGIPKEYGGSGDSSVPTAKGVINSLKAISQVVLKDKQFSGRTYAIQGLGKVGFKVAEELLKEGNDLYVSDLQESLPLRLQQLGQRLGRHVEILHGDEIYEAAADVFVPCAQGAILNDATIARLKVKAIAGAANNQLEAERHGQMLHDQGIWFAPDYIVNSGGLIQVADELYGSNEKRVLSKTNAIYDTILEIFHQAERHHITTLQAANQLCERRIRERARRNNFFVNRIRPKWNLRK
B2: PheDH (Halalkalibacterium halodurans C-125; E113D/N276L) (protein)
chain: B1 chain with E113D, N276L
B3: PheDH (Halalkalibacterium halodurans C-125; N276L) (protein)
chain: B1 chain with N276L
B4: PheDH (Halalkalibacterium halodurans C-125; E113D) (protein)
chain: B1 chain with E113D

Substitutions are numbered along the chain they refer to. Names may count otherwise.

Substrate in the first data set: N[C@@H](Cc1ccccc1)C(=O)O
Description: purified protein. It is filed as biochemical, Halalkalibacterium halodurans. The note with it: oxidative deamination, 2 mM NAD+, 50 mM glycine-KCl-KOH pH 10.4, 25°C.
For B1, the Km came out at 6.88 ± 0.41 mM and the turnover number (kcat) stood at 2.4847 ± 0.0035 s⁻¹.
Turning to B2, the Km was 5.14 ± 0.3 mM and the catalytic constant (kcat) is 11.26 ± 0.055 s⁻¹.
With B3, the Michaelis-Menten constant (Km) was determined as 8.71 ± 0.2 mM and the kcat turned out to be 8.8435 ± 0.0687 s⁻¹.
On to B4, for which the Km turned out to be 8.28 ± 0.4 mM and the catalytic constant (kcat) is 12.193 ± 0.005 s⁻¹.

Substrate in another data set: O=C(O)C(=O)Cc1ccccc1
Description: purified protein. It is filed as biochemical, Halalkalibacterium halodurans. The note with it: reductive amination, 500 mM ammonia, 100 microM NADH, glycine-KCl-KOH pH 10.4, 25°C.
Regarding B1, the Km was found to be 0.337 ± 0.05 mM and the kcat turned out to be 10.296 ± 0.0167 s⁻¹.
In the case of B2, the Km was 0.812 ± 0.01 mM and the turnover number (kcat) came out at 39.0852 ± 0.0667 s⁻¹.
Consider B3, for which the Km stood at 1.05 ± 0.1 mM and the kcat worked out at 31.321 ± 0.0383 s⁻¹.
Consider B4, for which the Michaelis constant (Km) was 7.607 ± 0.2 mM and the kcat turned out to be 25.1237 ± 0.0167 s⁻¹.

By Km is commonly meant the concentration of substrate that gives half-maximal velocity. The kcat is the number of substrate molecules converted per active site and unit of time at saturation.

The record behind these values is publication PMC9728165, “Improving Catalytic Efficiency and Changing Substrate Spectrum for Asymmetric Biocatalytic Reductive Amination” (Journal of Microbiology and Biotechnology, 2019).
